Columns and labels:
[1] = target: porcine trypsin (porcine) (UniProt P00761)
[2] = target: porcine trypsin (porcine) (UniProt P00761); test: enzyme inhibition kinetics (double-reciprocal, Lineweaver-Burk plot); 0, 66.66 and 133.33 ηmol L^−1 rTcTI against 10 µg porcine trypsin, 15 min at 37 °C, then substrate BApNA at 0.04–0.42 (printed ηmol L^−1) in 240 µL; absorbance at 410 nm; quadruplicate; competitive inhibition

UniProt P00761, sequence (P00761 9-231): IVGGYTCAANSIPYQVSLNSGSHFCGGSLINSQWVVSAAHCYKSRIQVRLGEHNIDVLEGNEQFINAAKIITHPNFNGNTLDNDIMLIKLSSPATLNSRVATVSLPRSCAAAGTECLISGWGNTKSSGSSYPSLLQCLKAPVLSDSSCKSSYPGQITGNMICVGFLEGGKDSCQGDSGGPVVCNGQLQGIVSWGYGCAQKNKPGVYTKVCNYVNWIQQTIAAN

residual trypsin activity (hydrolysis of BApNA, absorbance at 410 nm) with rTcTI rising from 0.5 to 1.2 μmol L^−1; 70% at the lower concentration [1]: 12%
Ki [2]: 0.408 µM
Substance: recombinant Theobroma cacao trypsin inhibitor (rTcTI) (natural protein)

— paper PMC8758671
